{
  "source": "patent US20120208867",
  "biological_target": "T1, His-tagged HMGB1 (UniProt P09429)",
  "T1 sequence": "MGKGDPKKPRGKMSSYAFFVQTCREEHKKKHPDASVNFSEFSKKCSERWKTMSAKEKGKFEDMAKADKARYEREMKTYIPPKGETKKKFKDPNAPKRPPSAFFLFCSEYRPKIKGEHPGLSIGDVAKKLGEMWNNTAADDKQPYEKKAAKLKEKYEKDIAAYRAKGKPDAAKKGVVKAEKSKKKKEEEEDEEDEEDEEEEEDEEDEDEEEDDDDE",
  "experiment": "SPR",
  "conditions": "comparative pool; no signal increase in FIG. 1; unit M inferred",
  "data": [
    {"sequence": "GGGACGCUCACGUACGCUCANNNNNNNNNNNNNNNNNNNNNNNNNNNNNNNNNNNNNNNNUCAGUGCCUGGACGUGCAGU [40N random RNA pool]", "values": [
      {"measurement": "Kd", "value": 1040, "unit": "nM"}
    ]}
  ]
}
